Measured values taken from patent publication US20260242419A1, “A CYCLIC PEPTIDE FOR TRAPPING INTERLEUKIN-1 BETA” (Merck Sharp & Dohme LLC, priority 2023, published 2026).
Starred links: 1 amine or outer side, 2 acyl side, 3 side chain; linkers in the order of their positions; H or OH if unused. Non-standard residues stand in square brackets, D forms with d. No end group written: not given here. Phe(4-(5-CO2H-2-pyrimidyl)) = N[C@@H](Cc1ccc(-c2ncc(C(=O)O)cn2)cc1)C(=O)O; Phe(4-(4-Ac-piperazinyl)) = CC(=O)N1CCN(c2ccc(C[C@H](N)C(=O)O)cc2)CC1; dPro(4R-(4-pyridylmethyl)) = O=C(O)[C@H]1C[C@@H](Cc2ccncc2)CN1; Ala(piperidin-4-yl) = O=C([C@H](CC1CCN([*:3])CC1)N[*:1])[*:2]; Trp(βS-Me,4-F) = C[C@@H](c1c[nH]c2cccc(F)c12)[C@H](N)C(=O)O; Bip(4'-COOH) = N[C@@H](Cc1ccc(-c2ccc(C(=O)O)cc2)cc1)C(=O)O; Ala(1-bicyclo(1.1.1)pentyl) = N[C@@H](CC12CC(C1)C2)C(=O)O; dPro(4R-Bzl(4-F)) = O=C(O)[C@H]1C[C@@H](Cc2ccc(F)cc2)CN1; Ala(pyrimidin-5-yl) = N[C@@H](Cc1cncnc1)C(=O)O; Phe(4-COOH) = N[C@@H](Cc1ccc(C(=O)O)cc1)C(=O)O; Pro(cis-4-F) = O=C(O)[C@@H]1C[C@H](F)CN1; Ala(4-THP) = N[C@@H](CC1CCOCC1)C(=O)O; cisHyp = O=C(O)[C@@H]1C[C@H](O)CN1; d(αMeD) = C[C@@](N)(CC(=O)O)C(=O)O; 4Pal = N[C@@H](Cc1ccncc1)C(=O)O; aThr = C[C@H](O)[C@H](N)C(=O)O; αMeD = C[C@](N)(CC(=O)O)C(=O)O; d(αMeS) = C[C@@](N)(CO)C(=O)O; Dab = NCC[C@H](N)C(=O)O; Aib = CC(C)(N)C(=O)O

Molecular target: Recombinant human IL-1β (BioLegend 579404) (human, UniProt P01584 117-269)
Experiment: cell-based or functional assay

| MRC5 IC50 [nM] | Binder |
| --- | --- |
| 0.038 | [Phe(4-(4-Ac-piperazinyl))][4Pal][Phe(4-COOH)]G[cisHyp][Trp(βS-Me,4-F)][Aib]SW[Aib][Ala(pyrimidin-5-yl)]Q[Dab]G[dPro(4R-Bzl(4-F))] (lactam (positions not given here); also: macrolactam ring, closure sites not given here) [SEQ ID NO: 196] |
| 0.014 | cyclo([Bip(4'-COOH)][4Pal][Phe(4-COOH)]G[Pro(cis-4-F)][Trp(βS-Me,4-F)][Aib]SW[αMeD][Ala(4-THP)]Q[Dab]G[dPro(4R-(4-pyridylmethyl))]) (ring closure inferred; not fully specified (bridges); printed as Bip4CO2H-4Pal-Phe4COOH-G-Proc4F-SbMeW4F-Aib-S-W-aMeD-AlaTHP4-Q-Dab-G-dProc4CH24Pal, cyclic (macrolactam)) [SEQ ID NO: 200] |
| 0.036 | [Phe(4-(5-CO2H-2-pyrimidyl))][4Pal][Phe(4-COOH)]G[cisHyp][Trp(βS-Me,4-F)][Aib]SW[Aib][Ala(pyrimidin-5-yl)]Q[Dab]G[dPro(4R-(4-pyridylmethyl))] (lactam (positions not given here); also: macrolactam ring, closure sites not given here) [SEQ ID NO: 197] |
| 0.016 | [Bip(4'-COOH)][4Pal][Phe(4-COOH)]G[Pro(cis-4-F)][Trp(βS-Me,4-F)][Aib]SW[αMeD][Ala(4-THP)]QSG[dPro(4R-(4-pyridylmethyl))] (lactam (positions not given here); also: macrolactam ring, closure sites not given here) [SEQ ID NO: 189] |
| 0.025 | [Phe(4-(4-Ac-piperazinyl))][4Pal][Phe(4-COOH)]G[Pro(cis-4-F)][Trp(βS-Me,4-F)][Aib]SW[Aib][Ala(pyrimidin-5-yl)]Q[Dab]G[dPro(4R-Bzl(4-F))] (lactam (positions not given here); also: macrolactam ring, closure sites not given here) [SEQ ID NO: 183] |
| 0.015 | [Phe(4-(5-CO2H-2-pyrimidyl))][4Pal][Phe(4-COOH)]G[Pro(cis-4-F)][Trp(βS-Me,4-F)][Aib]SW[αMeD][Ala(pyrimidin-5-yl)]Q[Dab]G[dPro(4R-(4-pyridylmethyl))] (lactam (positions not given here); also: macrolactam ring, closure sites not given here) [SEQ ID NO: 187] |
| 0.019 | [Bip(4'-COOH)][Ala(1-bicyclo(1.1.1)pentyl)][Phe(4-COOH)]G[cisHyp][Trp(βS-Me,4-F)][Aib]SW[d(αMeS)][Ala(pyrimidin-5-yl)]Q[Dab]G[dPro(4R-(4-pyridylmethyl))] (lactam (positions not given here); also: macrolactam ring, closure sites not given here) [SEQ ID NO: 190] |
| 0.014 | [Phe(4-(4-Ac-piperazinyl))][4Pal][Phe(4-COOH)]G[Pro(cis-4-F)][Trp(βS-Me,4-F)][Aib]SW[αMeD][Ala(pyrimidin-5-yl)]Q[Dab]G[dPro(4R-Bzl(4-F))] (lactam (positions not given here); also: macrolactam ring, closure sites not given here) [SEQ ID NO: 184] |
| 0.027 | [Bip(4'-COOH)][Ala(1-bicyclo(1.1.1)pentyl)][Phe(4-COOH)]G[Pro(cis-4-F)][Trp(βS-Me,4-F)][Aib]SW[Aib][Ala(piperidin-4-yl)]QSG[dPro(4R-(4-pyridylmethyl))] (lactam (positions not given here); also: macrolactam ring, closure sites not given here) [SEQ ID NO: 180] |
| 0.013 | [Bip(4'-COOH)][4Pal][Phe(4-COOH)]G[cisHyp][Trp(βS-Me,4-F)][Aib]SW[d(αMeS)][Ala(pyrimidin-5-yl)]Q[Dab]G[dPro(4R-(4-pyridylmethyl))] (lactam (positions not given here); also: macrolactam ring, closure sites not given here) [SEQ ID NO: 195] |
| 0.032 | cyclo([Bip(4'-COOH)][4Pal][Phe(4-COOH)]G[cisHyp][Trp(βS-Me,4-F)][Aib]SW[αMeD][Ala(4-THP)]QSG[dPro(4R-(4-pyridylmethyl))]) (ring closure inferred; not fully specified (bridges); printed as Bip4CO2H-4Pal-Phe4COOH-G-Proc4OH-SbMeW4F-Aib-S-W-aMeD-AlaTHP4-Q-S-G-dProc4CH24Pal, cyclic (macrolactam)) [SEQ ID NO: 199] |
| 0.043 | [Phe(4-(5-CO2H-2-pyrimidyl))][Ala(1-bicyclo(1.1.1)pentyl)][Phe(4-COOH)]G[cisHyp][Trp(βS-Me,4-F)][Aib]SW[Aib][Ala(pyrimidin-5-yl)]Q[Dab]G[dPro(4R-(4-pyridylmethyl))] (lactam (positions not given here); also: macrolactam ring, closure sites not given here) [SEQ ID NO: 185] |
| 0.024 | [Phe(4-(5-CO2H-2-pyrimidyl))][Ala(1-bicyclo(1.1.1)pentyl)][Phe(4-COOH)]G[Pro(cis-4-F)][SbMcW4F][Aib]SW[Aib][Ala(pyrimidin-5-yl)]Q[Dab]G[dPro(4R-(4-pyridylmethyl))] (lactam (positions not given here); also: macrolactam ring, closure sites not given here) [SEQ ID NO: 198] |
| 0.011 | [Bip(4'-COOH)][Ala(1-bicyclo(1.1.1)pentyl)][Phe(4-COOH)]G[Pro(cis-4-F)][Trp(βS-Me,4-F)][Aib]SW[αMeD][Ala(4-THP)]Q[Dab]G[dPro(4R-(4-pyridylmethyl))] (lactam (positions not given here); also: macrolactam ring, closure sites not given here) [SEQ ID NO: 193] |
| 0.015 | [Phe(4-(5-CO2H-2-pyrimidyl))][4Pal][Phe(4-COOH)]G[Pro(cis-4-F)][Trp(βS-Me,4-F)][Aib]SW[Aib][Ala(pyrimidin-5-yl)]Q[Dab]G[dPro(4R-(4-pyridylmethyl))] (lactam (positions not given here); also: macrolactam ring, closure sites not given here) [SEQ ID NO: 186] |
| 0.021 | [Bip(4'-COOH)][Ala(1-bicyclo(1.1.1)pentyl)][Phe(4-COOH)]G[cisHyp][Trp(βS-Me,4-F)][Aib]SW[d(αMeS)][Ala(4-THP)]Q[Dab]G[dPro(4R-(4-pyridylmethyl))] (lactam (positions not given here); also: macrolactam ring, closure sites not given here) [SEQ ID NO: 192] |
| 0.021 | [Bip(4'-COOH)][Ala(1-bicyclo(1.1.1)pentyl)][Phe(4-COOH)]G[cisHyp][Trp(βS-Me,4-F)][Aib]SW[αMeD][Ala(4-THP)]Q[Dab]G[dPro(4R-(4-pyridylmethyl))] (lactam (positions not given here); also: macrolactam ring, closure sites not given here) [SEQ ID NO: 191] |
| 0.049 | [Bip(4'-COOH)][Ala(1-bicyclo(1.1.1)pentyl)][Phe(4-COOH)]G[cisHyp][Trp(βS-Me,4-F)][Aib][aThr]W[d(αMeD)][Ala(pyrimidin-5-yl)]Q[Dab]G[dPro(4R-(4-pyridylmethyl))] (lactam (positions not given here); also: macrolactam ring, closure sites not given here) [SEQ ID NO: 182] |
| 0.021 | [Bip(4'-COOH)][Ala(1-bicyclo(1.1.1)pentyl)][Phe(4-COOH)]G[Pro(cis-4-F)][Trp(βS-Me,4-F)][Aib]SW[d(αMeS)][Ala(piperidin-4-yl)]QSG[dPro(4R-(4-pyridylmethyl))] (lactam (positions not given here); also: macrolactam ring, closure sites not given here) [SEQ ID NO: 181] |
| 0.02 | [Phe(4-(5-CO2H-2-pyrimidyl))][Ala(1-bicyclo(1.1.1)pentyl)][Phe(4-COOH)]G[Pro(cis-4-F)][Trp(βS-Me,4-F)][Aib]SW[αMeD][Ala(pyrimidin-5-yl)]Q[Dab]G[dPro(4R-(4-pyridylmethyl))] (lactam (positions not given here); also: macrolactam ring, closure sites not given here) [SEQ ID NO: 188] |
| 0.014 | [Bip(4'-COOH)][4Pal][Phe(4-COOH)]G[cisHyp][Trp(βS-Me,4-F)][Aib]SW[Aib][Ala(pyrimidin-5-yl)]Q[Dab]G[dPro(4R-(4-pyridylmethyl))] (lactam (positions not given here); also: macrolactam ring, closure sites not given here) [SEQ ID NO: 194] |
